{
  "source": "the nanobody polyreactivity screen of Harvey et al. (2022)",
  "data": [
    {"test": "yeast display, Sf9 membrane polyspecificity reagent, FACS + sequencing; frameworks hold sequencing errors", "procedure,_shortened": "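Using colony PCR, genes from sorted yeast display clones were amplified, then sequenced on MiSeq at 2 × 250 and filtered by CDR length. The clones had been stained with 10% biotinylated, detergent-solubilized Sf9 membrane reagent for 1 hour at 4 °C and sorted by FACS into low and high (top ~1%) gates on anti-HA and streptavidin fluorescence. Polyreactivity labels come from the gate of origin.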", "values": [
      {"sequence": "QVQLVVSGGGLVQAGGSLRLSCAASGSIFAQNVMGWYRQAPGKERELVAAISYCGGTTYYADSVKGRFTISRDNAMNSVYLQMNSLKPEDTAVYYCAAEFGVYEYDYWGQGTQVTVSS", "polyreactivity (PSR sort gate)": "low polyreactivity"},
      {"sequence": "QDQLVESVGGLVQAGASLRLSCAATGRTFTTYAIGLYRPAPGKERELVAAITSGTSTNYADSVKGRFTISRDTAKNTVYVQMNSLKPEDTAVYYCAAPHGRGYEYWGQGTQVTVSS", "polyreactivity (PSR sort gate)": "high polyreactivity"},
      {"sequence": "QVQHVESGGGIVQAGGSLRLSCAASGSIFDRNAMGWYRPAPGQERELVASISWDGGNTYYADSVKGRFTISRDNSTNTVYLQMNSLKPEDTAVYYCAVDLYIWYDGYEYYYWGQGTQVTVSS", "polyreactivity (PSR sort gate)": "high polyreactivity"},
      {"sequence": "QVQLVESGGGLVQAGGSLRLSCAASGFIFGYYAMGWYRQAPGKERELVAPIKYNDDSTYYADSVKARFTISRDNAKNTVYLQMNSLKPEDTAVYYCAASRFWPGNSYYYRYYYWGQGTQVTVSS", "polyreactivity (PSR sort gate)": "low polyreactivity"},
      {"sequence": "QVQLVESGGGLVQEGGSLRLSCAASGRIFPKYAMGWYRQAPAKERELVAAISQRGGSTYYADSVKGRFTISRDNAKNTVYLQMNSLKPEDTAVYYCAASYYRQSCEYDYWGQGTQVTVSS", "polyreactivity (PSR sort gate)": "low polyreactivity"},
      {"sequence": "QVQLEESGGGLVQAGGSLRLSCAASGFIFGKNDMGWYRQAPWKERELVAAITIGGSTNYADSVKGRFTISRDNAKNTVYLQMNSLKPEDTAVYYCNADSYHYGTSLYNYWGQGTQVTVSS", "polyreactivity (PSR sort gate)": "low polyreactivity"},
      {"sequence": "QVQLVESGGGLVQAGGSLRLSCAASGFTFRHNTMGWYRQAPGKERELVAAISIGGRTYYADSVKGRFTISRDNAKNTVYLQMNSLKTEDSAVYYCANLSGGQSPGYDYWGQGTQVTVSW", "polyreactivity (PSR sort gate)": "high polyreactivity"},
      {"sequence": "QVQLVETGGGLDQAGGSLRLSCAASGRTSRYAMGWYRQAPGKEMELVAAISRNGRTTSYADSVKGRFTISRDNAKNTVYLQKNSLKPEDTAVDYCNAYSAFVPPTRGYYWGQGTQVTVTS", "polyreactivity (PSR sort gate)": "high polyreactivity"},
      {"sequence": "QVQLVESGGGLVQAGGSLRLSCSASGLTFYGYVMGWYRQAPGKERELVASISRSGRRTYYADSVKGRFTISRDNAKNTVYLQMNSLKPEDTAVYYCAAADHVGQEDDYWGLGTQVTVSS", "polyreactivity (PSR sort gate)": "low polyreactivity"},
      {"sequence": "QVQLVESGGGLVQAGGSLRLSCAASGSIFDNNSMGWYRQAPGKERELVAAIDWSDGSTYYADSVKWRFTISRDNAKNTVYLQMNSLIPEDTSVYYCATVGKQKYDAKYGYWGQGTQVTVSS", "polyreactivity (PSR sort gate)": "high polyreactivity"},
      {"sequence": "QVQLVESGGGLVQAGGSLRLICAASGIIFAYNAMGWYRQAPGKESELVAAISVIGGTTYYADSVKGRFTMSRDNAKNTVYLRMNSLKPEDSAVYYCAVDSVQYGGGYERLHELYYWGQGTQVTVSS", "polyreactivity (PSR sort gate)": "low polyreactivity"},
      {"sequence": "QVQLVESGGGLVQAGGSLRLSCAASGRTFYTYAMGWYRQAPGKERELVAGIRTGGGSTYYADSVKGRFTISRDNAKYSVYLQMNSLKPDDTAVYYCAADTYDGYDYWGQGSQVTVSS", "polyreactivity (PSR sort gate)": "low polyreactivity"},
      {"sequence": "QVQLVESGRGLVQAGGSLRLSCAASGSIFGTNTMGWYRQAPGKERELVAAISWSGGSTYYADSVKGRFTISRDNAKNSVYLHMNSLKPEDTAVYYCNAVYPSVYPVSTRYYWGQGTQVTVSS", "polyreactivity (PSR sort gate)": "high polyreactivity"},
      {"sequence": "QVQLVESGGGLVQAGGSLSLRCASSGSTFAYYAMGWYRQAPGKERELVAGNNWTGGSTYYADSVKGRFTISRDNAKNTVYLQMNSLKPEDTAVYYCAVTYPYGYEYDHWGQGTQVTVSS", "polyreactivity (PSR sort gate)": "low polyreactivity"},
      {"sequence": "QGQLVESGGGLVQAGGSLRLSCAASGRTFIGNVMGWYRQAPGKERELVAAISKSGTRTYYADSVKGRFTISRDIAKNTVYLQMNSLKPEDTAVYYCAASSYTHKRYPSPYDYWGQGTQVTVSA", "polyreactivity (PSR sort gate)": "high polyreactivity"},
      {"sequence": "QVQLVESGGGLVQAGGSLSLSCAASGITFSGNAMGWYRQAPGKERELVAAITWRGDNTYYADSVKGRFTISRDNAKNTVYLQMNSLKPEDTAVYYCAAKSPLFGLTSYPGPDDSWGQGTQVTVSS", "polyreactivity (PSR sort gate)": "low polyreactivity"},
      {"sequence": "QVQLVESGGGLVQAGGSLRLSCAASGFIFRRNAMGWYRQAPGKERELVAAIRQRGDSTYYADSVKGRFTISRDNAKITVYLQMNSLKPEDTAVYYCNAVAKLYYWRYDYWGQGTQVTVSS", "polyreactivity (PSR sort gate)": "low polyreactivity"},
      {"sequence": "QVQLVESGGGLVQAGGSLRLSCAASGRIFDHYAMGWYRQAPGKERELVAAINSGGTTNYADSVKGRFTISRDNAKNTVYLQMNSLKPEETAVYYCAARPRKGQYYFGGNYWGQGTQVTVSS", "polyreactivity (PSR sort gate)": "low polyreactivity"},
      {"sequence": "QVQLVESGGGLVQAGGSLRLSCAASGSTFWPYAMGWYIQAPGKERELVAAITSSGGSTYYADSVKGRFTISRDNAKNTVYLQMNSLKAEDTAVYYCAADWSNLGAYDYWGQGTQVTVSS", "polyreactivity (PSR sort gate)": "low polyreactivity"},
      {"sequence": "QVQLVESGGGLVQAGGSLRLSCAASGRTFVPYAMGWYRQAPGKEREFLAAISWRGGSTYYADSVKGRFTISRDNAKNTVYLQMNSLKPEDTAVYYCAARYKRGFGVRFGYDYWGQGTQVTVSS", "polyreactivity (PSR sort gate)": "high polyreactivity"},
      {"sequence": "QVQLVESGGGLVQAGGSLRLSCAASGGTFVFYAMGWYRQAPGKERELVAAISSAGRTYYADSVKGRFTISRDNAKNTVYLQMNSLKPEDTAVYYCAAVSSQYDGRYYYWGQGTQVTVSS", "polyreactivity (PSR sort gate)": "high polyreactivity"},
      {"sequence": "QVQLVESGGGLVQAGGSLRLSCAASGLILHINTMGWYRQAPGKERELVAAISWSGDSTYYSDSVKGRFTISRDNAKNTVYLQKNSLKPDDSAVYYGAADYWYFYTPYSYEYGYWGQGTQVTVSS", "polyreactivity (PSR sort gate)": "high polyreactivity"},
      {"sequence": "QVQLVESGGGLVQAGGSLRLSCAASGITFLSNAMGWYRQAPGKERELVAAISRGGGTTYYADSVKGRFTISRDIAKNTVYLQMNSLKPEDTAVYYCAKGRCSSSRFDYWGQVTQVTVSS", "polyreactivity (PSR sort gate)": "high polyreactivity"},
      {"sequence": "QVQLVESGGGLVQAGGSLRLSCAASGFIFEGNAMGWYRPAPGKERELVAAISWSGGRTFYADSVKGRFTISRDNAKNTVYLQMNSLKPEDTAVYYCNALPGRRRWQVDYWGQGTQVTVSS", "polyreactivity (PSR sort gate)": "high polyreactivity"},
      {"sequence": "QVQLVESGGGLLQAGGSLRLSCAASGRIFDRNAMGWYRQAPGKERELVATISSGDTTDYADSVKGRFTISRDNAKNTVYLQMNSLKPEDTAVYYITIYNYWGQGTQVTVSS", "polyreactivity (PSR sort gate)": "low polyreactivity"},
      {"sequence": "QVQLVESGGGLVQAGGSLRLSCAASGITLFHYVMGWYRQAPGKERELVAVISSSGGSTYYADSVKVRFTISRDNAKNSVYLHMNSLKQVDTAVYYGAAKRYNYWGQGTQVTVSS", "polyreactivity (PSR sort gate)": "high polyreactivity"},
      {"sequence": "QVQLVESGGGLVQAGGSLRLSCAASGFIFRYYAMGWYRPAPGKERELVAAISGSGGSTYYADSVKGRFTISRDNAKNTVYLQMNSLKPEDTAVYYCNKVVLYGAHYYYWGQGTQVTVSS", "polyreactivity (PSR sort gate)": "high polyreactivity"},
      {"sequence": "QVQLVESGGGLVQAGGSLRLSCAASGITFVDYDMGWYRQAPGKERELVAAISWSGGSTYYADSVKGRFTISRDNAKNTVYLQMNSLKPEDTAVYYFAAEVIWWVREYYYWGQGTQVTVSS", "polyreactivity (PSR sort gate)": "low polyreactivity"},
      {"sequence": "QVQLVESGGGLVQAGGSLRLSCAASGSIFGDNAMGWYRQAPGKERELVARISSGGNTYYADSVKGRFTISRDNAKNTVYLQMNSLKPEDTAVYYCAAAIKVSYKKFPYYYWGQGTQVTVSS", "polyreactivity (PSR sort gate)": "high polyreactivity"},
      {"sequence": "QVQLVESGGGLVQAGGSLRLSCAASGLTSWYNAMGWYRQAPGKEREFVAAISFSGGRTFYADSVKGRFTISRDNAKKTVYLQMNSLKPEDTAGYYCNADVYGFDYWGQGTQVTVSS", "polyreactivity (PSR sort gate)": "high polyreactivity"},
      {"sequence": "QVQLVESGGGLVQAGGSLRLSCAASGSIFSYNVMGWYRQAPGKERELVAAISYGGGSTYYADSVKGRFTISRDTAKNTVYLQMNSLKPEDTAVYYCAARKWYTYYPYDYWGQGTQVTVSS", "polyreactivity (PSR sort gate)": "high polyreactivity"},
      {"sequence": "QVQLVESGGGLVQAGGSLRLSCAASGRTLAFNAMGWSRQAPGKERELGAGIRNGTSTNYADSVKGRFTISRVNAKNTVYLQMNCLKPEDTADYYCNVPYYLQSYLSGYDYWGQGTQVSVSS", "polyreactivity (PSR sort gate)": "low polyreactivity"}
    ]}
  ]
}
